Test results from patent US20250283129A1, “PROCESS” (Sun Pharmaceutical Industries Australia Pty Limited, priority 2021, published 2025).
Where a chain is given by its changes, count along the chain named. Names and notes keep the numbering of the source. Read-outs that look alike come from different tables or passages of the source.

What was measured:
codeine = assay: Whole cell biotransformation of codeine to morphine by E. coli cells expressing CODM variants; format: cell-based; settings: for average codeine to morphine yield: FIG. 5, morphine assayed after 30 minutes per legend; for morphine yield improved relative to WT CODM: morphine yield assayed after 30 minutes; for speed of biotransformation with codeine as substrate (in words): time course over two hours; for yield of morphine: time course, after one hour
thebaine = assay: Whole cell biotransformation of thebaine to oripavine by E. coli cells expressing CODM variants; format: cell-based; settings: for average thebaine to oripavine yield: FIG. 5; for oripavine yield improved relative to WT CODM: oripavine yield assayed after 4 hours
[1] = morphine after 30 minutes, oripavine after 4 hours

B1: 17M: codeine 3-O-demethylase with amino acid substitution I7M (protein, listed as Papaver somniferum)
chain: METPILMKLGNGLSIPSVQELAKLTLAEIPSRYTCTGESPLNNIGASVTDDETVPVIDLQNLLSPEPVVGKLELDKLHSACKEWGFFQLVNHGVDALLMDNIKSEIKGFFNLPMNEKTKYGQQDGDFEGFGQPYIESEDQRLDWTEVFSMLSLPLHLRKPHLFPELPLPFRETLESYLSKMKKLSTVVFEMLEKSLQLVEIKGMTDLFEDGLQTMRMNYYPPCPRPELVLGLTSHSDFSGLTILLQLNEVEGLQIRKEERWISIKPLPDAFIVNVGDILEIMTNGIYRSVEHRAVVNSTKERLSIATFHDSKLESEIGPISSLVTPETPALFKRGRYEDILKENLSRKLDGKSFLDYMRM
Q: Which results are given for B1?
A: average codeine to morphine yield (codeine): 32%; average thebaine to oripavine yield (thebaine; after 4 hours): 6%

B2: E259D: codeine 3-O-demethylase with amino acid substitution E259D (protein, listed as Papaver somniferum)
chain: B1 chain with M7I, E259D
Q: Which results are given for B2?
A: morphine yield improved relative to WT CODM (codeine): ~30%; oripavine yield improved relative to WT CODM (thebaine): ~38%

B3: E259G+R260K: codeine 3-O-demethylase with amino acid substitutions E259G and R260K (protein, listed as Papaver somniferum)
chain: B1 chain with M7I, E259G, R260K
Q: With B3 as the molecule, how does the “product yield / performance compared to WT CODM strain (in words)” value (thebaine) read?
A: Its value is “improved compared to the WT CODM stain”.

B4: T3K: codeine 3-O-demethylase with amino acid substitution T3K (protein, listed as Papaver somniferum)
chain: B1 chain with T3K, M7I
Q: With B4 as the molecule, how does the “product yield / performance compared to WT CODM strain (in words)” value (thebaine; [1]) read?
A: The value was “minor improvement in product yield”.

B5: P4A: codeine 3-O-demethylase with amino acid substitution P4A (protein, listed as Papaver somniferum)
chain: B1 chain with P4A, M7I
Q: How did the “product yield / performance compared to WT CODM strain (in words)” value (thebaine; [1]) turn out when B5 was run?
A: The value was “minor improvement in product yield”.

B6: M360I: codeine 3-O-demethylase with amino acid substitution M360I (protein, listed as Papaver somniferum)
chain: B1 chain with M7I, M360I
Q: Which “morphine yield improved relative to WT CODM” value (codeine) does the source give for B6 here?
A: The value was ~29%.

Q: What about the “speed of biotransformation with codeine as substrate (in words)” value (“speed of biotransformation with codeine” below) (codeine) of the same molecule?
A: Its value is “faster than the WT CODM control but not as fast as the other two mutant strains”.

Q: What about the “oripavine yield improved relative to WT CODM” value (thebaine) of the same molecule?
A: Its value is ~33%.

B7: R260T: codeine 3-O-demethylase with amino acid substitution R260T (protein, listed as Papaver somniferum)
chain: B1 chain with M7I, R260T
Q: With B7 as the molecule, how does the “less morphine generated than WT CODM” value (codeine; after 30 minutes) read?
A: The value was ~28%.

Q: And the “less oripavine generated than WT CODM” value (thebaine; after 4 hours)?
A: Its value is ~29%.

B8: WT CODM: wild type codeine 3-O-demethylase (UniProtKB: D4N502), N-terminally fused to 6H and MBP, expressed in E. coli (protein, UniProt D4N502 1-360, looked up)
Codeine O-demethylase: B1 chain with M7I
modifications: N-terminal His6-MBP fusion
notes: wild type codeine 3-O-demethylase (UniProtKB: D4N502), N-terminally fused to 6H and MBP, expressed in E. coli
Q: For B8, which “average codeine to morphine yield” value (codeine) is on record?
A: The value was 47%.

Q: What about the “average thebaine to oripavine yield” value (thebaine; after 4 hours) of the same molecule?
A: The value was 47%.

B9: 15K: codeine 3-O-demethylase with amino acid substitution I5K (protein, listed as Papaver somniferum)
chain: B1 chain with I5K, M7I
Q: For B9, which “morphine yield improved relative to WT CODM” value (codeine) is on record?
A: Its value is ~58%.

Q: What about the “speed of biotransformation with codeine” value (codeine) of the same molecule?
A: The value was “faster than the WT CODM control”.

Q: And the yield of morphine (codeine)?
A: The yield of morphine was ~94%.

Q: What about the “oripavine yield improved relative to WT CODM” value (thebaine) of the same molecule?
A: Its value is ~79%.

B10: E259D+R260K: codeine 3-O-demethylase with amino acid substitutions E259D and R260K (protein, listed as Papaver somniferum)
chain: B1 chain with M7I, E259D, R260K
Q: B10 was tested. Which “product yield / performance compared to WT CODM strain (in words)” value (thebaine; [1]) did it give?
A: Its value is “improved compared to the WT CODM stain”.

B11: E259G: codeine 3-O-demethylase with amino acid substitution E259G (protein, listed as Papaver somniferum)
chain: B1 chain with M7I, E259G
Q: With B11 as the molecule, how does the “morphine yield improved relative to WT CODM” value (codeine) read?
A: The value was ~24%.

Q: What about the “oripavine yield improved relative to WT CODM” value (thebaine) of the same molecule?
A: Its value is ~27%.

B12: 15K+M360I: codeine 3-O-demethylase with amino acid substitutions I5K and M360I (protein, listed as Papaver somniferum)
chain: B1 chain with I5K, M7I, M360I
Q: B12 was tested. Which “increase in morphine yield relative to the WT CODM strain” value (codeine; Example 4, morphine measured after 15 minutes) did it give?
A: Its value is 2.3 ×.

Q: What about the “speed of biotransformation with codeine” value (codeine) of the same molecule?
A: The value was “faster than the WT CODM control”.

Q: And the yield of morphine (codeine)?
A: Its yield of morphine is ~94%.

Q: And the “increase in oripavine yield relative to the WT CODM strain” value (thebaine; Example 4, oripavine measured after 2 hours)?
A: The value was 2.76 ×.

Q: What about the “speed of biotransformation with thebaine as substrate (in words)” value (thebaine; time course over twenty-four hours) of the same molecule?
A: Its value is “performed the fastest biotransformation”.

Q: What about the “yield of thebaine to oripavine” value (thebaine; time course, after ~five hours) of the same molecule?
A: Its value is ~95%.
